± gives the uncertainty stated by the source.
B1: Kinesin-like protein KIF16B, residues 1213 to 1273; numbered along this chain, Q96L93 (parent)
chain: ETWTVFRRYSRFREMHKTLKLKYAELAALEFPPKKLFGNKDERVIAERRSHLEKYLRDFFS

Variants of: B1
Experiment: abundance fitness (aPCA) (normalised: wild type 0, dead -1); higher = more abundant; growth selection in yeast, the domain comes from the species named
Conditions: Homo sapiens

Abundance fitness of substitutions, site by site:
W3: N -0.024 ± 0.13 | Y -0.424 ± 0.22 | T -0.432 ± 0.24 | R -0.232 ± 0.06 | S -0.152 ± 0.13 | Q -0.771 ± 0.24 | V -0.521 ± 0.19
E25: G -0.384 ± 0.068 | F -0.224 ± 0.12 | A -0.309 ± 0.092 | I -0.292 ± 0.18 | H -0.749 ± 0.42
H16: C 0.016 ± 0.12 | V 0.342 ± 0.053 | Y 0.167 ± 0.089 | I 0.452 ± 0.11 | N -0.353 ± 0.31 | D -0.835 ± 0.18 | E -0.842 ± 0.27 | M 0.311 ± 0.061 | A 0.135 ± 0.047 | S -0.083 ± 0.058 | F -0.044 ± 0.14 | L 0.379 ± 0.039 | W 0.534 ± 0.051 | T 0.144 ± 0.058 | R -0.073 ± 0.046 | K 0.062 ± 0.17 | Q -0.194 ± 0.083
Y23: Q -0.393 ± 0.099 | I -0.034 ± 0.16 | V 0.39 ± 0.092 | H -0.128 ± 0.26 | W 0.177 ± 0.062 | A 0.068 ± 0.076 | E -0.897 ± 0.14 | S -0.528 ± 0.15 | L 0.279 ± 0.069 | C 0.167 ± 0.078 | M 0.051 ± 0.14 | R -0.726 ± 0.094 | T -0.379 ± 0.14 | G -0.42 ± 0.086 | F 0.296 ± 0.13 | P -1.06 ± 0.28 | K -0.803 ± 0.28
R7: F 0.078 ± 0.11 | A 0.022 ± 0.078 | T -0.02 ± 0.14 | Q 0.164 ± 0.097 | G 0.186 ± 0.045 | K 0.227 ± 0.069 | H 0.225 ± 0.23 | V -0.042 ± 0.056 | M -0.04 ± 0.092 | L -0.025 ± 0.068 | N -0.131 ± 0.14 | S 0.141 ± 0.077 | P -0.161 ± 0.14 | C 0.084 ± 0.14
R11: S 0.09 ± 0.083 | D -0.231 ± 0.17 | V 0.246 ± 0.18 | C 0.166 ± 0.13 | W 0.205 ± 0.066 | G -0.03 ± 0.042 | A 0.206 ± 0.12 | P -0.133 ± 0.13 | T -0.096 ± 0.084 | Y -0.154 ± 0.29 | N -0.122 ± 0.3 | H -0.112 ± 0.13 | M 0.423 ± 0.19 | E -0.487 ± 0.081 | L -0.059 ± 0.06
L21: M 0.147 ± 0.096 | E 0.352 ± 0.062 | I -0.379 ± 0.27 | D 0.101 ± 0.11 | R 0.163 ± 0.056 | Y -0.477 ± 0.18 | T -0.079 ± 0.13 | G -0.028 ± 0.031 | Q 0.159 ± 0.16 | K 0.339 ± 0.077 | A 0.356 ± 0.075 | C -0.131 ± 0.077 | H 0.112 ± 0.094 | S 0.254 ± 0.06 | F -0.559 ± 0.19 | V 0.114 ± 0.054 | N -0.289 ± 0.25
L19: G -0.977 ± 0.14 | M 0.144 ± 0.095 | E -0.917 ± 0.23 | A -0.737 ± 0.29 | R -1.07 ± 0.13 | D -1.13 ± 0.34 | F -0.146 ± 0.11 | N -0.658 ± 0.36 | K -0.999 ± 0.16 | Q -0.991 ± 0.24 | C -0.603 ± 0.22 | V -0.656 ± 0.1 | S -1.11 ± 0.19 | T -0.844 ± 0.19 | P -1.02 ± 0.24
S10: F 0.099 ± 0.062 | R -0.395 ± 0.081 | Q -0.419 ± 0.13 | A -0.095 ± 0.065 | W -0.018 ± 0.061 | Y -0.567 ± 0.13 | C 0.208 ± 0.13 | T 0.136 ± 0.069 | E -0.758 ± 0.14 | D -0.224 ± 0.22 | I -0.229 ± 0.11 | K -0.317 ± 0.19 | L -0.007 ± 0.074 | P 0.135 ± 0.074 | V -0.167 ± 0.06 | H -1.1 ± 0.48
M15: Q -1.09 ± 0.36 | R -1.09 ± 0.15 | G -0.736 ± 0.076 | L 0.265 ± 0.074 | S -0.908 ± 0.24 | V 0.215 ± 0.057 | P -0.993 ± 0.26 | F -0.095 ± 0.18 | E -1.09 ± 0.17 | T -0.455 ± 0.095 | W 0.229 ± 0.054 | A -0.044 ± 0.078
A24: L -0.352 ± 0.075 | S -0.24 ± 0.1 | Q -0.227 ± 0.12 | G -0.446 ± 0.11 | T -0.115 ± 0.1 | F -0.331 ± 0.17 | E -0.174 ± 0.1 | V -0.321 ± 0.095 | P -0.518 ± 0.33 | M -0.107 ± 0.13 | R 0.178 ± 0.049 | W -0.569 ± 0.12
T4: G 0.085 ± 0.046 | P -0.102 ± 0.049 | S 0.109 ± 0.029 | N 0.308 ± 0.045 | Q 0.119 ± 0.056 | A -0.087 ± 0.057 | R -0.256 ± 0.043 | L -0.318 ± 0.045 | E 0.223 ± 0.053 | Y -0.139 ± 0.058 | W 0.033 ± 0.062 | K -0.15 ± 0.058 | I -0.23 ± 0.079 | F -0.124 ± 0.057 | M -0.077 ± 0.065 | D 0.178 ± 0.091 | H -0.406 ± 0.077 | V -0.319 ± 0.05 | C 0.079 ± 0.055
E14: F -0.433 ± 0.22 | T -0.597 ± 0.22 | G -0.183 ± 0.063 | L -0.429 ± 0.07 | I -0.867 ± 0.22 | S -0.229 ± 0.064 | A -0.318 ± 0.097 | C -0.319 ± 0.2 | N -0.556 ± 0.15 | P -0.589 ± 0.25 | Q -0.534 ± 0.14 | M -0.41 ± 0.092 | H 0.13 ± 0.19 | V -0.299 ± 0.066 | W -0.69 ± 0.094 | D -0.159 ± 0.18
F6: C -0.842 ± 0.23 | S -0.215 ± 0.064 | E -0.161 ± 0.12 | I -0.044 ± 0.095 | N -0.451 ± 0.12 | R -0.601 ± 0.072 | P -0.227 ± 0.061 | V -0.107 ± 0.084 | T -0.352 ± 0.096 | Y -0.69 ± 0.14 | A -0.241 ± 0.088 | G -0.168 ± 0.061 | Q -0.402 ± 0.18 | D -0.474 ± 0.33 | K -0.442 ± 0.26 | H -0.541 ± 0.29 | L -0.242 ± 0.073 | M -0.443 ± 0.13
R13: A 0.096 ± 0.1 | D 0.391 ± 0.15 | C -0.333 ± 0.18 | M -0.153 ± 0.37 | W -0.213 ± 0.072 | S -0.137 ± 0.083 | Q -0.398 ± 0.16 | V -0.443 ± 0.073 | N -0.265 ± 0.21 | G 0.023 ± 0.04 | Y -0.079 ± 0.25 | T -0.056 ± 0.065 | K 0.1 ± 0.079 | L -0.108 ± 0.12 | E -0.354 ± 0.1
R8: I 0.37 ± 0.076 | M 0.284 ± 0.066 | G 0.097 ± 0.046 | A 0.334 ± 0.083 | T 0.005 ± 0.079 | E -0.494 ± 0.085 | P -0.092 ± 0.047 | W 0.02 ± 0.086 | Q 0.057 ± 0.087 | D -0.271 ± 0.13 | N -0.31 ± 0.36 | K 0.295 ± 0.055 | H -0.198 ± 0.33 | L 0.317 ± 0.041 | S 0.12 ± 0.04 | V 0.26 ± 0.063 | Y 0.048 ± 0.07 | C 0.282 ± 0.056
T18: V -0.038 ± 0.1 | L -0.247 ± 0.076 | D -0.806 ± 0.16 | M -0.06 ± 0.067 | E -0.223 ± 0.072 | W 0.472 ± 0.073 | Y 0.508 ± 0.29 | G -0.237 ± 0.077 | S -0.133 ± 0.076 | N -0.514 ± 0.23 | R -0.222 ± 0.086 | H -0.463 ± 0.37 | A 0.176 ± 0.087 | K -0.056 ± 0.13 | C -0.143 ± 0.1
K22: I 0.069 ± 0.095 | W 0.28 ± 0.078 | E -0.77 ± 0.3 | T -0.207 ± 0.12 | D -0.907 ± 0.37 | Q -0.828 ± 0.16 | R -0.354 ± 0.071 | V 0.03 ± 0.059 | Y -0.354 ± 0.28 | S -1.01 ± 0.22 | G -0.454 ± 0.072 | L 0.127 ± 0.055 | A -0.168 ± 0.09 | M -0.153 ± 0.1 | P -0.921 ± 0.16 | C -0.222 ± 0.12
Y9: V 0.019 ± 0.059 | Q -0.446 ± 0.15 | L 0.063 ± 0.098 | P 0.129 ± 0.11 | M 0.163 ± 0.048 | N 0.091 ± 0.34 | W 0.076 ± 0.06 | S 0.055 ± 0.06 | A -0.119 ± 0.08 | K -0.056 ± 0.073 | I 0.156 ± 0.16 | E -0.858 ± 0.19 | T -0.201 ± 0.11 | G 0.245 ± 0.042 | C 0.123 ± 0.091 | R -0.27 ± 0.054
K20: Q -0.411 ± 0.17 | Y -1 ± 0.26 | H -0.421 ± 0.41 | N -1.01 ± 0.24 | D -0.945 ± 0.24 | L -0.671 ± 0.097 | G -0.676 ± 0.11 | C -0.574 ± 0.27 | E -1.02 ± 0.19 | W -0.734 ± 0.18 | A -0.632 ± 0.1 | P -0.904 ± 0.21 | V -0.853 ± 0.096 | M -0.746 ± 0.15 | R -0.211 ± 0.059
F12: T -0.907 ± 0.45 | E -0.941 ± 0.23 | I 0.068 ± 0.14 | C -0.164 ± 0.11 | Y -0.469 ± 0.17 | V 0.047 ± 0.067 | G -0.597 ± 0.083 | S -0.642 ± 0.11 | K -1.08 ± 0.25 | R -0.921 ± 0.13 | W 0.017 ± 0.075 | M -0.103 ± 0.14 | A -0.271 ± 0.12
V5: I -0.044 ± 0.08 | K 0.318 ± 0.25 | A 0.161 ± 0.048 | P -0.442 ± 0.22 | R -0.041 ± 0.08 | E -0.486 ± 0.12 | G 0.22 ± 0.06 | W 0.086 ± 0.13 | L 0.035 ± 0.1 | T 0.094 ± 0.078 | M 0.125 ± 0.055 | S -0.023 ± 0.086 | D -0.156 ± 0.11 | Q -0.093 ± 0.05
K17: F -0.685 ± 0.27 | M -0.343 ± 0.1 | V -0.225 ± 0.13 | Q -0.452 ± 0.12 | L -1 ± 0.22 | Y -0.607 ± 0.13 | W -0.783 ± 0.29 | E -0.311 ± 0.095 | R -0.199 ± 0.057 | A -0.325 ± 0.13 | T -0.489 ± 0.14 | C -0.483 ± 0.16

— the Human Domainome abundance scans (Beltran et al. 2025)
